Three molecules from US20200277406A1 (ROCHE DIAGNOSTICS OPERATIONS, published 2020) can be followed below.

The target of experiment [1] is T1, pIGF-1R(1340-1366)[1346-pTyr]amid (phosphotyrosine at 1346 (1346-pTyr); C-terminal amide).
T1 construct: also called pIGF-1R peptide; phosphorylated IGF-1R peptide (free in solution)
T1 peptide: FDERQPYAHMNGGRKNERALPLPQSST
The experiment can be described thus: SPR (Biacore 3000, 25 C), dual binder on biotinylated linker on SA chip, peptide in solution; T40-Bi linker (spacer T20-Biotin-dT-T20). The protocol:
(§1) A BIACORE™ 3000 instrument (GE Healthcare) was used with a BIACORE™ SA sensor mounted into the system at T=25° C. The system was preconditioned at 100 μl/min with 3 ×1 min injection of 1 M NaCl in 50 mM NaOH and 1 min 10 mM HCl.
(§2) 124 RU amino-PEO-biotin were captured on the reference flow cell 1.
(§3) As a control, buffer was injected instead of the ssFabs.
(SPR reads the build-up and loss of mass on a sensor chip optically.)

The target of experiment [2] is T1, pIGF-1R(1340-1366)[1346-pTyr]amid. The experiment can be described thus: SPR (Biacore 3000, SA sensor, 25 °C): ssFab′ hybridised on the captured biotinylated T40-Bi linker (linker 10), peptide injected in solution. The protocol:
as §2, §3
(§4) The dissociation was monitored at 50 μl/min for 5.3 min. The system was regenerated after each concentration step with a 12 sec pulse of 250 mM NaOH and was reloaded with ssFab′ ligand.

Experiment [3] addresses T2, IGF-1R(1340-1366)amid (C-terminal amide).
T2 construct: also called IGF-1R peptide; non-phosphorylated IGF-1R peptide (free in solution)
T2 peptide: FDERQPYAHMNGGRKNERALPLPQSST
The description is as above. As to the method: as §2, §3, §4

For experiment [4], the target named is T1, pIGF-1R(1340-1366)[1346-pTyr]amid. The experiment can be described thus: SPR (Biacore 3000, 25 C), dual binder on biotinylated linker on SA chip, peptide in solution; T0 linker (no thymidine spacer). The protocol:
as §1, §2, §3

For experiment [5] the target is unchanged. Put plainly: SPR (Biacore 3000, SA sensor, 25 °C): ssFab′ hybridised on the captured biotinylated T0-Bi 37-mer linker, peptide injected in solution. The protocol: as §2, §3, §4
Experiment [6] deals with T2, IGF-1R(1340-1366)amid. Described as above. The protocol:
as §2, §3, §4

Experiment [7] addresses T3, IGF-1R(1340-1366)[1346-pTyr; Glu(Bi-PEG-1340]amid (not fully specified; phosphotyrosine at 1346 (1346-pTyr); biotin-PEG linker bound via glutamic acid corresponding to position 1340; C-terminal amide).
T3 construct: also called pIGF-1R peptide; phosphorylated IGF-1R peptide (biotinylated)
T3 peptide: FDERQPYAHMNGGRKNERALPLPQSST
The experiment can be described thus: SPR (Biacore 2000, 25 C), immobilised biotinylated peptide, 100 nM ssFab′ in solution.
Method: (§5) Subsequently biotinylated peptides were captured on the SA surface in the respective flow cells. […] Finally all flow cells were saturated with d-biotin.
(§6) Report points were set at the end of the analyte association phase (Binding Late, BL) and at the end of the analyte dissociation phase (Stability Late, SL) to monitor the response unit signal heights of each interaction. The dissociation rates kd (1/s) were calculated according to a linear 1:1 Langmuir fit using the BIACORE™ evaluation software 4.1. The complex halftimes in minutes were calculated upon the formula ln(2)/(60*kd).

For experiment [8], the target named is T4, IGF-1R(1340-1366); Glu(Bi-PEG-1340]amid (not fully specified; biotin-PEG linker bound via glutamic acid corresponding to position 1340; C-terminal amide).
T4 construct: also called IGF-1R peptide; non-phosphorylated IGF-1R peptide (biotinylated)
T4 peptide: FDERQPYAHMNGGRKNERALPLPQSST
Described as above.
Method: as §5, §6

“And” between values parts separate entries of the source, which are not always exact repeats. Identical values can stand only once.

B1: T40 dual binding agent (ssFab′ 8.1.2 and ssFab′ 1.4.168 on the T40-Bi linker, linker 10) (bispecific antibody, V domains shown)
VH 1: EVQLQQSGPALVKPGASVKMSCKASGFTFTSYVIHWVKQKPGQGLEWIGYLNPYNDNTKYNEKFKGKATLTSDRSSSTVYMEFSSLTSEDSAVYFCARRGIYAYDHYFDYWGQGTSLTVSS
VL 1: QIVLTQSPAIMSASPGEKVTLTCSASSSVNYMYWYQQKPGSSPRLLIYDTSNLASGVPVRFSGSGSVTSYSLTISRMEAEDAATYYCQQWSTYPLTFGAGTKLELK
VH 2: QCDVKLVESGGGLVKPGGSLKLSCAASGFTFSDYPMSWVRQTPEKRLEWVATITTGGTYTYYPDSIKGRFTISRDNAKNTLYLQMGSLQSEDAAMYYCTRVKTDLWWGLAYWGQGTLVTVSA
VL 2: QLVLTQSSSASFSLGASAKLTCTLSSQHSTYTIEWYQQQPLKPPKYVMELKKDGSHTTGDGIPDRFSGSSSGADRYLSISNIQPEDESIYICGVGDTIKEQFVYVFGGGTKVTVLG
modifications: Fab′ hinge cysteine coupled to ssDNA
In general, Kd refers to the free concentration of one partner at which half of the binding sites on the other are occupied at equilibrium, for simple one-to-one binding. Take B1: the Kd in experiment [1] is 0.01 nM; in experiment [2], 0.0125 nM; in the experiment with IGF-1R(1340-1366)amid [3] it was 0.973 nM and 1 nM. This molecule also yielded a t1/2 diss with IGF-1R(1340-1366)amid [3] of 4.3 min.

B2: T0 dual binding agent (ssFab′ 8.1.2 and ssFab′ 1.4.168 on the T0-Bi 37-mer linker) (bispecific antibody, V domains shown)
VH 1: B1 VH 1
VL 1: B1 VL 1
VH 2: B1 VH 2
VL 2: B1 VL 2
modifications: Fab′ hinge cysteine coupled to ssDNA
For B2, the Kd was 0.03 nM in experiment [4]; 0.0344 nM in experiment [5]; 1.2 nM and 1 nM in the experiment with IGF-1R(1340-1366)amid [6]. For the same molecule, the t1/2 diss in the experiment with IGF-1R(1340-1366)amid [6] was determined as 5 min.

B3: ssFab′ 1.4.168 (Fab, V domains shown)
VH: DVKLVESGGGLVKPGGSLKLSCAASGFTFSDYPMSWVRQTPEKRLEWVATITTGGTYTYYPDSIKGRFTISRDNAKNTLYLQMGSLQSEDAAMYYCTRVKTDLWWGLAYWGQGTLVTVSA
VL: B1 VL 2
modifications: hinge-region cysteine of the Fab′ coupled via maleimide to a fluorescein-labelled ssDNA oligonucleotide
notes: Fab′ of murine mAb 1.4.168 (pepsin cleavage, cysteamine reduction), 1:1 conjugated to ssDNA; also called fluorescein-ssFab′ 1.4.168; ssFab′ 1.004.168
As for B3, the T1/2 dis in experiment [7] and in experiment [8] was 3 min each time. The Kd was 2.59 nM and 3 nM in experiment [5]; 1.35 nM and 1 nM in the experiment with IGF-1R(1340-1366)amid [6]; 2.14 nM and 2 nM in experiment [2]; 1.1 nM and 1 nM in the experiment with IGF-1R(1340-1366)amid [3]. The t1/2 diss in experiment [5] came to 4 min; in the experiment with IGF-1R(1340-1366)amid [6], 4 min; in the experiment with IGF-1R(1340-1366)amid [3], 3 min.
